These results are taken from FireProtDB (doi:10.1074/jbc.m707838200).

The term Tm denotes the temperature at which the thermal transition is half complete.

B1: T171V, Q9EYL5 (parent)
chain: MTKKLLTLFIVSMLILTACGKKESATTSSKNGKPLVVVYGDYKCPYCKELDEKVMPKLRKNYIDNHKVEYQFVNLAFLGKDSIVGSRASHAVLMYAPKSFLDFQKQLFAAQQDENKEWLTKELLDKHIKQLHLDKETENKIIKDYKTKDSKSWKAAEKDKKIAKDNHIKTTPTAFINGEKVEDPYDYESYEKLLKDKIK

Values joined by “and” are separate entries in the source; they are usually repeats but may differ in a detail not shown here. Equal values may be shown once.

The variants in this data set derive from B1. The settings on record: Staphylococcus aureus, pH 7, Thermal, CD, reversible: Yes, structure 3BCI, whole UniProt chain shown; for unfolding free energy: 25 °C, Hepes-NaOH 20 mM, NaCl 170 mM; for Tm / change of melting temperature, mutant - wild type (higher = more stable): Phosphate 100 mM.

As to MTKKLLTLFIVSMLILTACGKKESATTSSKNGKPLVVVYGDYKCPYCKELDEKVMPKLRKNYIDNHKVEYQFVNLAFLGKDSIVGSRASHAVLMYAPKSFLDFQKQLFAAQQDENKEWLTKELLDKHIKQLHLDKETENKIIKDYKTKDSKSWKAAEKDKKIAKDNHIKTVPTAFINGEKVEDPYDYESYEKLLKDKIK [T171V], the unfolding free energy is 34.3 kJ/mol and 35.2 kJ/mol; the melting temperature (Tm) was 71.8 °C and 73 °C; the “change of melting temperature, mutant - wild type (higher = more stable)” value is -0.7 °C and 1.1 °C.
On to MTKKLLTLFIVSMLILTACGKKESATTSSKNGKPLVVVYGDYKCPYCKELDEKVMPKLRKNYIDNHKVEYQFVNLAFLGKDSIVGSRASHAVLMYAPKSFLDFQKQLFAAQQDQNKEWLTKELLDKHIKQLHLDKETENKIIKDYKTKDSKSWKAAEKDKKIAKDNHIKTTPTAFINGEKVEDPYDYESYEKLLKDKIK [E114Q], for which the unfolding free energy turned out to be 25.6 kJ/mol; the Tm was found to be 74.2 °C; the “change of melting temperature, mutant - wild type (higher = more stable)” value was 2.3 °C.
